B1: Axial regulator YABBY 4 (Arabidopsis thaliana (Mouse-ear cress)), Q9LDT3 (parent)
chain: MTKLPNMTTTLNHLFDLPGQICHVQCGFCTTILLVSVPFTSLSMVVTVRCGHCTSLLSVNLMKASFIPLHLLASLSHLDETGKEEVAATDGVEEEAWKVNQEKENSPTTLVSSSDNEDEDVSRVYQVVNKPPEKRQRAPSAYNCFIKEEIRRLKAQNPSMAHKEAFSLAAKNWAHFPPAHNKRAASDQCFCEEDNNAILPCNVFEDHEESNNGFRERKAQRHSIWGKSPFE
partner: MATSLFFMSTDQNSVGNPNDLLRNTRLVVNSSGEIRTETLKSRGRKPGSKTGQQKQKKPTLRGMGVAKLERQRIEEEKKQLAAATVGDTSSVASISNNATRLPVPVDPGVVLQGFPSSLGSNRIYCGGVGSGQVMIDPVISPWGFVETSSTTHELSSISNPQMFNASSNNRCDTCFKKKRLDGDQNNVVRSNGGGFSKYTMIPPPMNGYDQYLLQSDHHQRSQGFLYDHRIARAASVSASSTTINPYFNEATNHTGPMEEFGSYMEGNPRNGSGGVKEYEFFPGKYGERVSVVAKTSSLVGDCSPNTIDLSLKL

Variants of: B1
Conditions: with spl_arath SPL

Row | Variant | effect of a mutation on the interaction
1 | MTKLPNMTTTLNHLFDLPGQICHVQCGFSTTILLVSVPFTSLSMVVTVRCGHCTSLLSVNLMKASFIPLHLLASLSHLDETGKEEVAATDGVEEEAWKVNQEKENSPTTLVSSSDNEDEDVSRVYQVVNKPPEKRQRAPSAYNCFIKEEIRRLKAQNPSMAHKEAFSLAAKNWAHFPPAHNKRAASDQCFCEEDNNAILPCNVFEDHEESNNGFRERKAQRHSIWGKSPFE [C29S] | decreasing interaction

From IntAct's records for PubMed 15299139
